The values that follow come from publication PMC7610366 (Nature chemical biology, 2020).

The term Kd denotes the equilibrium constant for the complex coming apart. Read a low Kd as a tighter complex.

The target of assay [1] is 6xHis-tagged RcsF (E. coli) (UniProt P69411). Kind of assay: BLI.
In assay [2] the target is Untagged BamA (E. coli), P0A940. Kind of assay: BLI. Conditions: remark: other sources report otherwise.
In assay [3] the target is BamABCDE holocomplex (E. coli, UniProt P0A940;P77774;P0A903;P0AC02;P0A937, lipid moiety | lipid moiety | lipid moiety | lipid moiety). As to the kind of experiment: native gel or EMSA. A general note: In EMSA bound probe runs differently from free probe, usually more slowly.
The target in assay [4] is BamAB sub-complex (E. coli, UniProt P0A940;P77774, lipid moiety). As to the kind of experiment: native gel or EMSA.
Chain of BamAB sub-complex (P77774 20-392, one chain of several): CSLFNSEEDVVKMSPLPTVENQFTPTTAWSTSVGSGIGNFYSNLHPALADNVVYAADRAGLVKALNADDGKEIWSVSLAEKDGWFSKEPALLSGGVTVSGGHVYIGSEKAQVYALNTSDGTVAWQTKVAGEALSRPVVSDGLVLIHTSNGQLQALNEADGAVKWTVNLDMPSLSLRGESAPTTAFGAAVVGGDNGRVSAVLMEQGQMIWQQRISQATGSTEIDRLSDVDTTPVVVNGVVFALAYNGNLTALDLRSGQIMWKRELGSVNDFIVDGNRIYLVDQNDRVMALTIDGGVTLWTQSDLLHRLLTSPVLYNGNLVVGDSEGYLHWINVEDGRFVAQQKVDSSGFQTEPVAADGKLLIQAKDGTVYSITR

Chain of BamABCDE holocomplex (P77774 20-392, chain 2 of 4): as the sequence (P77774 20-392, one chain of several) above
Chain of BamABCDE holocomplex (P0A903 25-344, chain 3 of 4): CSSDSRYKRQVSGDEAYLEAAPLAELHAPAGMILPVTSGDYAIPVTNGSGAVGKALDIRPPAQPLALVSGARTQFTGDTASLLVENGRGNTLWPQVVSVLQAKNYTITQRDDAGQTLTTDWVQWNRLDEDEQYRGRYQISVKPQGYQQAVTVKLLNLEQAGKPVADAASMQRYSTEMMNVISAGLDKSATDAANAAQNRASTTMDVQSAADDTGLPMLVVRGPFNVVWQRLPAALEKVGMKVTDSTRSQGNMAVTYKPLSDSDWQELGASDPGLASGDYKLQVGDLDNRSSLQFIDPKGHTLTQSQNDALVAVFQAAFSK
Chain of BamABCDE holocomplex (P0AC02 20-245, chain 4 of 4): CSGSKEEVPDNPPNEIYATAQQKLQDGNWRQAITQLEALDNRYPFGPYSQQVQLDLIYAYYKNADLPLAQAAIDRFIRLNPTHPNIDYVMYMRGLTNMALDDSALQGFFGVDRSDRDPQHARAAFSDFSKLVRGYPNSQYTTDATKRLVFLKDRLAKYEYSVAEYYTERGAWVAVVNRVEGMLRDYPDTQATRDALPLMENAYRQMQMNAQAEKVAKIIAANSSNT
Chain of BamABCDE holocomplex (P0A937 20-113, chain 5 of 4): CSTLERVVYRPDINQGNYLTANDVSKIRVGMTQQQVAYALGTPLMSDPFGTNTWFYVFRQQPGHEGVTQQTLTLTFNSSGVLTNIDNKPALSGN

“Untagged BamA (from UniProt P0A940 21-810) (natural protein; other documents disagree on this pair)” had a Kd in assay [1] of 420 nM.

B1: 6xHis-tagged RcsF, P69411 16-134 (natural protein)
chain: CSMLSRSPVEPVQSTAPQPKAEPAKPKAPRATPVRIYTNAEELVGKPFRDLGEVSGDSCQASNQDSPPSIPTARKRMQINASKMKANAVLLHSCEVTSGTPGCYRQAVCIGSALNITAK
modifications: here or on the partner: biotin (EZ-Link NHS-PEG4-biotin) where immobilised on streptavidin tips
Regarding B1, in assay [2], the Kd amounted to 350 nM.

B2: RcsF (natural protein)
chain: CSMLSRSPVEPVQSTAPQPKAEPAKPKAPRATPVRIYTNAEELVGKPFRDLGEVSGDSCQASNQDSPPSIPTARKRMQINASKMKANAVLLHSCEVTSGTPGCYRQAVCIGSALNITAK
modifications: lipid anchor
In the case of B2, the binding result in assay [3] and in assay [4] was “binds” throughout.
